Experimental data published in patent US20150246947A1 (BAXALTA, published 2015).
Where “and” joins values, the source holds several entries; their conditions need not be identical. Identical values can stand only once. Like-named read-outs stand apart in the source and are kept apart here. Non-standard residues stand in square brackets, D forms with d. Tle = CC(C)(C)[C@H](N)C(=O)O

T1: human Protein S (human, UniProt P07225 42-676)
T1 construct: Called 'full length Protein S' / 'human full-length Protein S'; It was coated on plates (ELISA), Eu-labeled (LANCE) or immobilized on a chip (Biacore); also called PS; full length Protein S
T1 sequence: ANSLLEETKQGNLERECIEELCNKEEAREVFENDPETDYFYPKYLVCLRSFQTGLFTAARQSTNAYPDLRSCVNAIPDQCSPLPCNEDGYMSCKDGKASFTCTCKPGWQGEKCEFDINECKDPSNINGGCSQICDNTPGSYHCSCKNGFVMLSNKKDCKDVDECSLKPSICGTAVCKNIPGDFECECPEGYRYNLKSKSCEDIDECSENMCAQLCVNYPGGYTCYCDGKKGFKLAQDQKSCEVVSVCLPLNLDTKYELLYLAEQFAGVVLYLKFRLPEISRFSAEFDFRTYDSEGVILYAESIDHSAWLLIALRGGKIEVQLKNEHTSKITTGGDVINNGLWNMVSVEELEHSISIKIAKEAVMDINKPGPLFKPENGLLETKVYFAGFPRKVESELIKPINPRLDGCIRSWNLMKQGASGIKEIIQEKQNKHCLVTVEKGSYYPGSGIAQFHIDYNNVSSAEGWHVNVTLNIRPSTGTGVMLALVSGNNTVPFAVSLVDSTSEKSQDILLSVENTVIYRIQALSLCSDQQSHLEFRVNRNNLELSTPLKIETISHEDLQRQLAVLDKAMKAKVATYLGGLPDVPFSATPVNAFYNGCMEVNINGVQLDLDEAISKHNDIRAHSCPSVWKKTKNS

T2: human Protein S (UniProt P07225 42-676)
T2 chain: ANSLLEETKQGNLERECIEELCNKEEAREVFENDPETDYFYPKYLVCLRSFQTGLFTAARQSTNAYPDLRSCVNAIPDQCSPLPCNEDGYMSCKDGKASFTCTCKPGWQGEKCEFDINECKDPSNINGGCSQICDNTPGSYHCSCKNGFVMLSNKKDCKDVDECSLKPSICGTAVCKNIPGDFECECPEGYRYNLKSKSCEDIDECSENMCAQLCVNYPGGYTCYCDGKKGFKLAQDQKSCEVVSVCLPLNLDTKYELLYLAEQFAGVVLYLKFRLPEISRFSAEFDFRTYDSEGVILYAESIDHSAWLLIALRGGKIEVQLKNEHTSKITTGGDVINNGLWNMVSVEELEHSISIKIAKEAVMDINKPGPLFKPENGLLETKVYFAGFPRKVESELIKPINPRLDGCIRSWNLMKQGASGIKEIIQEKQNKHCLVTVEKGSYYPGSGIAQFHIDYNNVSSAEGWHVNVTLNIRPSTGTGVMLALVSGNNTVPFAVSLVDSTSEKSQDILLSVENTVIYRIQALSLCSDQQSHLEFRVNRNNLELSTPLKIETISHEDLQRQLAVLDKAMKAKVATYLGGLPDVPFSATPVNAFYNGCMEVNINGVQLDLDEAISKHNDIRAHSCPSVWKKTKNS


What was measured:
[1] = molecular target: T1, human Protein S; assay: Biacore and LANCE IC50
[2] = molecular target: T2, human Protein S; assay: LANCE competition
Procedure, shortened: (§1)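 A homogeneous time-resolved FRET (LANCE) competition format paired europium-labelled Protein S and ULight-labelled streptavidin with a biotinylated tracer peptide, against which unlabelled test peptide was titrated three-fold. With final concentrations of 10 nM Protein S, 100 nM streptavidin and 300 nM tracer in 50 µl, or 2 nM Protein S and 60 nM tracer when a Tecan F500 was used, samples stood 1 hour at room temperature. Emission was read at 665 nm with excitation at 340 nm. Non-linear regression of these signals gave the IC50.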

[3] = molecular target: T2, human Protein S; assay: LANCE competition
Procedure, shortened: as §1

[4] = molecular target: T1, human Protein S; assay: LANCE TR-FRET competition; Eu-labeled Protein S; competitor tracer JBS0684
Method: Peptides also were characterized in a competition, homogenous europium-based TR-FRET assay (LANCE IC50 assay) using JBS0684 as a tracer (i.e., competitor for Protein S binding). The following reagents were mixed together in a Perkin-Elmer ProxiPlate MTP well (indicated concentration is the final concentration): Eu-labeled Protein S (10 nM), Ulight™-labeled Streptavidin (100 nM), tracer (JBS0684 (300 nM)), and peptide (titrated in three-fold dilution steps). The final volume was 50 μl/well. The reaction mix was incubated for 1 hour at room temperature, then the fluorescence emission at 665 nm was recorded on a multi-mode reader (SpectraMax® M5, Molecular Devices) using the following instrument settings: Ex 340 nm, Em 665 nm, delay 50 μsec, integration 100 μsec, reads 100. Binding of tracer peptides to soluble europium-labeled Protein S was detected by Streptavidin labeled with an acceptor fluorophor (ULight™). Inhibition of tracer-binding to Protein S by a non-biotinylated peptide results in a decrease of TR-FRET between the Eu-labeled Protein S and ULight™-labeled Streptavidin. IC50 values were obtained from peptide titration curves at constant tracer concentration using non-linear regression of the fluorescence emission signals at 665 nm.
Several peptides having multiple substitutions in the JBS2572 amino acid sequence were synthesized and evaluated using LANCE IC50 and CAT assays described above. For the assays, pooled normal plasma was supplemented with 3 nM APC and triggered with 6 pM TF, and 15 μM phospholipids (DOPC/POPS 80/20). Stock APC was diluted with TF-PL-MIX to 24 nM (plasma concentration: 3 nM).

[5] = molecular target: T1, human Protein S; assay: cell-based or functional assay
[6] = molecular target: T2, human Protein S; assay: LANCE competition
Procedure, shortened: as §1

| Binder | binding result [1] | IC50 [2] | IC50 [3] [nM] | IC50 [4] [nM] | CAT EC50 [5] [nM] | IC50 [6] [nM] |
| --- | --- | --- | --- | --- | --- | --- |
| Ac-HIYVTAGWYDYNTDTYHEFE-NH2 [JBS3284] | binds | 1.3 nM |  |  |  |  |
| Ac-EYYVTAGWYDYNTDTYYEFE-NH2 [JBS3232] | binds |  | 0.9 |  |  |  |
| Ac-DVHVSAGWYDYNKDIYYEFT-NH2 [JBS3296] | binds |  | 2.2 |  |  |  |
| Ac-TGL[Tle]SAGWYDYNFDTYREFT-NH2 (SMILES CC(=O)N[C@H](C(=O)NCC(=O)N[C@@H](CC(C)C)C(=O)N[C@H](C(=O)N[C@@H](CO)C(=O)N[C@@H](C)C(=O)NCC(=O)N[C@@H](Cc1c[nH]c2ccccc12)C(=O)N[C@@H](Cc1ccc(O)cc1)C(=O)N[C@@H](CC(=O)O)C(=O)N[C@@H](Cc1ccc(O)cc1)C(=O)N[C@@H](CC(N)=O)C(=O)N[C@@H](Cc1ccccc1)C(=O)N[C@@H](CC(=O)O)C(=O)N[C@H](C(=O)N[C@@H](Cc1ccc(O)cc1)C(=O)N[C@@H](CCCNC(=N)N)C(=O)N[C@@H](CCC(=O)O)C(=O)N[C@@H](Cc1ccccc1)C(=O)N[C@H](C(N)=O)[C@@H](C)O)[C@@H](C)O)C(C)(C)C)[C@@H](C)O) [JBS3202] |  |  |  | 1.6 | 129 |  |
| Ac-TGL[Tle]SAGWYDYNFDHYMEFT-NH2 [JBS3203] |  |  |  | 1.8 | 127 |  |
| Ac-EYYVEAGWYEYNTDNYYPFE-NH2 [JBS3236] | binds |  | 2.6 |  |  |  |
| Ac-TGLVEAGWYDYNFDVYREFT-NH2 [JBS3193] |  |  | 2.7 | 2.5 | 116 |  |
| Ac-EYYVSAGWYDYNNDIYYEFE-NH2 [JBS3218] | binds |  | 0.9 |  |  |  |
| Ac-EGYVSAGWYDYNQDIYFEFA-NH2 [JBS3260] | binds | 1.6 nM |  |  |  |  |
| Ac-EVIVSAGWYDYNNDIYYEFW-NH2 [JBS3274] | binds |  | 1 |  |  |  |
| Ac-TGLVSAGWYDYNNDVYREFT-NH2 [JBS3195] |  |  | 2.1 | 2 | 139 |  |
| Ac-TGLVSAGWYDYNFDTYMEFT-NH2 [JBS3186] |  |  |  | 2.6 | 176 |  |
| Ac-TGLVEAGWYDYNFDHYMEFT-NH2 [JBS3197] |  |  |  | 6.1 | 146 |  |
| Ac-YGLVSAGWYDYNFDTYREFT-NH2 [JBS3190] |  |  |  | 1.6 | 130 |  |
| Ac-YGLVSAGWYDYNFDVYREFT-NH2 [JBS3191] |  |  |  | 1.6 | 147 |  |
| Ac-TGLVEAGWYDYNFDTYREFT-NH2 [JBS3192] |  |  |  | 2.8 | 117 |  |
| Ac-TGLVSAGWYDYNNDHYMEFT-NH2 [JBS3198] |  |  |  | 2.5 | 149 |  |
| Ac-TGLVSAGWYDYNFDVYTEFT-NH2 [JBS3189] |  |  |  | 5 | 281 |  |
| Ac-TGLVSAGWYDYNFDTYTEFT-NH2 [JBS3188] |  |  |  | 2.9 | 155 |  |
| Ac-TGLVSAGWYDYNNDTYREFT-NH2 [JBS3194] |  |  | 2 | 1.8 | 122 |  |
| Ac-YGLVEAGWYDYNNDTYMEFT-NH2 [JBS3201] |  |  | 1.8 | 1.9 | 127 |  |
| Ac-YGLVSAGWYDYNFDHYMEFT-NH2 [JBS3196] |  |  | 2.5 | 2.2 | 155 |  |
| Ac-YGIVSAGWYDMNNDYYFEFY-NH2 [JBS3258] | binds | 0.8 nM and 0.9 nM |  |  |  |  |
| Ac-YVEVSAGWYDYNTDTYSEFW-NH2 [JBS3281] | binds | 1.7 nM and 2.3 nM |  |  |  |  |
| Ac-YGIVSAGWYDYNTDTYYEFY-NH2 [JBS3221] | binds |  |  |  |  | 0.6 |
| Ac-EYYVSAGWYDYNTDTYYEFT-NH2 [JBS3314] | binds | 0.8 nM |  |  |  |  |
| Ac-ESYVSAGWYDYNTDTYYEFF-NH2 [JBS3223] | binds |  | 0.7 |  |  |  |
| Ac-EYYVSAGWYDYMTDTYTEFE-NH2 [JBS3235] | binds |  | 1.4 |  |  |  |
| Ac-DNYVSAGWYDYNTDTYYEFY-NH2 [JBS3297] | binds | 1 nM |  |  |  |  |
